Data taken from patent publication US20050153894.

What was measured:
[1] = biological target: cyclin D1 (human), P24385; experiment: competition; conditions: modification not given
cyclin A (human), P20248 = experiment: competition; conditions: modification not given
cyclin A (human), P20248, sequence (P20248 whole entry): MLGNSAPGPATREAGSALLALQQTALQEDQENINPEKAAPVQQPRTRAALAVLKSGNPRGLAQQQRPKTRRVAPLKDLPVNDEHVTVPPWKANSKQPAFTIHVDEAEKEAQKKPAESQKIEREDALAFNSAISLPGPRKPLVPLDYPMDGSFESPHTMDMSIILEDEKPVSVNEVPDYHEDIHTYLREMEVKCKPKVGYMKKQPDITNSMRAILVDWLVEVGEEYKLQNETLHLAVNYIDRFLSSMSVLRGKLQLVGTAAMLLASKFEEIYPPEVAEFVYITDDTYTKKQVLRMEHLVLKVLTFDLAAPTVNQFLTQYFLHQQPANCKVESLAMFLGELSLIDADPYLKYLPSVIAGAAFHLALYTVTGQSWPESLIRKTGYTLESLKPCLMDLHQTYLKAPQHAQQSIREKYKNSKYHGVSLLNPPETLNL

cyclin D1 (human), P24385, sequence (P24385 whole entry): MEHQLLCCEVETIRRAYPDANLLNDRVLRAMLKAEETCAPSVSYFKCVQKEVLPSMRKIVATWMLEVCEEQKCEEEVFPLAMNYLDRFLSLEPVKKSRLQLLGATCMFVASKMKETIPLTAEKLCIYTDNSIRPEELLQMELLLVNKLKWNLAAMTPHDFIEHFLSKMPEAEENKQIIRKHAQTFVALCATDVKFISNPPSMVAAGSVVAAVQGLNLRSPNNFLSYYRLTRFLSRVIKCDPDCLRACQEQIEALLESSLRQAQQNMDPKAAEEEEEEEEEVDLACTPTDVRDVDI

B1: HSKRRLDL (peptide)
chain: HSKRRLDL
Question: With B1 as the binder, how does the IC50 [1] read?
Answer: Its IC50 is over 200 µM.

B2: Ac-RRLNF-NH2 (peptide)
chain: RRLNF
Question: With B2 as the binder, how does the IC50 (cyclin A (human), P20248) read?
Answer: The IC50 was 8.15 µM.

B3: HSKRRLFG (peptide)
chain: HSKRRLFG
Question: For B3, which IC50 [1] is on record?
Answer: The IC50 was over 200 µM.

B4: E2F1 PVKRRLDL (peptide)
chain: PVKRRLDL
Question: B4 was tested. Which IC50 [1] did it give?
Answer: Its IC50 is over 100 µM.
